In this experiment the target is 14-3-3ε (UniProt P62258). As to the kind of experiment: anti-Flag IP, anti-14-3-3ε Western blot. The note with it: reference: wild type; sites S274,S299.

For the substance PITPNC1 (from UniProt Q9UKF7) S274/299A, the “binding against the reference” value is on record as “weaker”.

For the origin of these results see publication PMC5300038.
